In article doi:10.1101/2023.02.26.530074, “Atomic resolution structure of a DNA-binding histone protein from the bacterium Bdellovibrio bacteriovorus” (bioRxiv, 2023):

Biological target: the molecule itself
Experiment: SEC-MALS; HBb at 3 mg/mL, Superdex 75 Increase 10/300 GL, 20 mM Tris pH 8.0, 150 mM NaCl, 1 M urea, 0.5 mL/min

B1: histone protein HBb from Bdellovibrio bacteriovorus (natural protein)
chain: MAEVLVVTSKVKKLIKEKGQMNTSAETIDVLSKAIEQLCLKGVESAKADGRKTVMARDIVIDHL
notes: HBb, histone homolog of Bdellovibrio bacteriovorus HD100, UniProt Q6MRM1; 64 amino acid residues, single histone fold domain; the gene encoding HBb was codon-optimized, synthesized and cloned into pETHis1a; In the crystal the first three and last three amino acids are not resolved; also called bacterial histone HBb; Bd0055; source: E. coli Mutant56(DE3), purified (HisTrap, TEV cleavage, second …)
stoichiometry N: 2
